In assay [1] the target is T1, recombinant human Vascular Adhesion Protein-1 (rhVAP-1), purified from CHO cells (human, UniProt Q16853 1-763, limits assumed).
T1 construct: also called recombinant human VAP-1
T1 sequence (looked up): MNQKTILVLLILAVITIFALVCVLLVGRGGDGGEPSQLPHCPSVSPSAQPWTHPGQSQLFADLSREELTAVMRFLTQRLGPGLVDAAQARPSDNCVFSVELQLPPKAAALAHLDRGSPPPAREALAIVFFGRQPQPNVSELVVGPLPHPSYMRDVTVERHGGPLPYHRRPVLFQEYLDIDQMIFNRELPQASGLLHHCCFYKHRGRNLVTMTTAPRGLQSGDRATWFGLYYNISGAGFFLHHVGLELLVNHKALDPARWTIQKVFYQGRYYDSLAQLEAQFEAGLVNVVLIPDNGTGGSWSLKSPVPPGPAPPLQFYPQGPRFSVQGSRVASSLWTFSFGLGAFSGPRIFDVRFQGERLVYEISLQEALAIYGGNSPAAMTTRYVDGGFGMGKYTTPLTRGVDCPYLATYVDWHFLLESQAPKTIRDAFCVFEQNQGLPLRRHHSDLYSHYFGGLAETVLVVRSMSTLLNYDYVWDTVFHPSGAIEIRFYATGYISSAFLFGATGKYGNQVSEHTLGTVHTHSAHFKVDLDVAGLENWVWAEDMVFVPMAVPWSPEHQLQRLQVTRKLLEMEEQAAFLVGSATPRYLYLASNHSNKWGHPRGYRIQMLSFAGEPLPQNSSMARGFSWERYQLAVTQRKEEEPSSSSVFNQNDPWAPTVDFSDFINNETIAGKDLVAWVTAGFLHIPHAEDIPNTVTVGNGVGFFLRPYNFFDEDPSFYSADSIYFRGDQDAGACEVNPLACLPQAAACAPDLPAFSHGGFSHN
As to the kind of experiment: time-resolved immunofluorometric assay, plate coated with rhVAP-1, europium-conjugated anti-human antibody detection. Here is the method: A time-resolved immunofluorometric assay was used quantitatively to examine the binding of 5F12, 4B3, 3F10, 8A4 and 8C10 to rhVAP-1. A microtiter plate was coated with rhVAP-1 and then blocked with bovine serum albumin solution. An amount of antibody between 2 and 4320 ng/ml was subsequently added to bind to rhVAP-1 and the bound antibody detected by a europium-conjugated mouse anti-human antibody (Perkin Elmer Inc.). The label was detected by measuring the time-resolved fluorescence (VICTOR³™ multilabel counter, PerkinElmer Inc.) at 615 nm. The fluorescence counts directly correlate with how much antibody was bound to its target. The sample data were then analyzed in comparison to the standard curve of a reference.

The target in assay [2] is T1, recombinant human Vascular Adhesion …. Described as above. The method, then: A microtiter plate was coated with rhVAP-1 and then blocked with bovine serum albumin solution. […] The label was detected by measuring the time-resolved fluorescence (VICTOR³™ multilabel counter, PerkinElmer Inc.) at 615 nm. […] The sample data were then analyzed in comparison to the standard curve of a reference.
The source holds these as a separate data set.

Assay [3] shares this target. As to the kind of experiment: Biacore SPR, BTT-1023 captured on biotinylated protein G' on a streptavidin chip, rhVAP-1 as analyte. Here is the method:
Constant amounts of rhVAP-1 were used as an analyte for saturating concentration of mAbs (ligands). Experiments were performed using BIALITE® equipment (BIACORE® AB) and the data analyzed using Biacore software.

6 molecules from patent US20110117021A1 (BIOTIE THERAPIES, published 2011) can be followed below.

B1: fully human anti-VAP-1 monoclonal antibody 8C10 (hybridoma-derived) (antibody, human IgG1, V domains shown)
VH: QVQLVESGGGVVQPGRSLRLSCAASGFTFFSYAMHWVRQTPGKGLEWVAVIWFDGSNENYVDSVKGRFTISRDNSKNTLYLQMNTLRAEDTAVYYCARDAWSYFDYWGQGTLVTVSS
VL: VIQLTQSPSSLSASVGDRVTITCRASQGISRALAWYQQKPGKGPKLLIYDASSLESGVPSRFSGSGSGTDFTLTISSLQPEDFATYYCQQFNSYPLTFGGGTKVEIK
Turning to B1, the dissociation constant (Kd) (as a rule, the concentration at which binding is half-saturated) in assay [1] came out at 210 pM.

B2: fully human anti-VAP-1 monoclonal antibody 3F10 (hybridoma-derived) (antibody, human IgG1, V domains shown)
VH: QVQLVESGGGVVQPGRSLRLSCAASGFTFSSYAMHWVRQAPGKGLEWVAVLWFDGSNEDYADSVKGRFTISRDNSKNTLYLQMNSLRAEDTAVYYCARDGWGYFDYWGQGTLVTVSS
VL: AIQLTQSPSSLSASVGDRVTITCRASQGISRALAWYQQKPGKAPKLLIYDASNLERGVPSRFSGSGSGTDFTLTISSLQPEDFATYYCQQFNSFPLTFGGGTKVEIK
As for B2, the Kd in assay [1] is 250 pM.

B3: recombinant fully human anti-VAP-1 antibody r8C10 (BTT-1023) (antibody, human IgG4 S228P, kappa, V domains shown)
VH: QVQLVESGGGVVQPGRSLRLSCAASGFTFFSYAMHWVRQTPGKGLEWVAVIWFDGSNENYVDSVKGRFTISRDNSKNTLYLQMNTLRAEDTAVYYCARDAWSYFDYWGQGTLVTVSS
VL: VIQLTQSPSSLSASVGDRVTITCRASQGISRALAWYQQKPGKGPKLLIYDASSLESGVPSRFSGSGSGTDFTLTISSLQPEDFATYYCQQFNSYPLTFGGGTKVEIKR
notes: also called recombinant 8C10
For B3, the Kd amounted to 380 pM in assay [2] and 130 pM in assay [3].

B4: fully human anti-VAP-1 monoclonal antibody 4B3 (hybridoma-derived) (antibody, human IgG1, V domains shown)
VH: EVQLVQSGGGLVHPGGSLRLSCAGSGFPVSSYGMHWVRQAPGKGLEWVSAIGVGGGTYHVDSVKGRFTISRDNAKNSLYLQMNSLRAGDMAVYYCARDPGFGEVYFDYWGQGTLVTVSS
VL: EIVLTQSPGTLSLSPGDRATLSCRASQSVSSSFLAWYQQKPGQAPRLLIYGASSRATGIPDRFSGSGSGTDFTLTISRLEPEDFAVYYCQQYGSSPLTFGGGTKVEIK
As for B4, in assay [1], the Kd was found to be 310 pM.

B5: fully human anti-VAP-1 monoclonal antibody 8A4 (hybridoma-derived) (antibody, human IgG1, V domains shown)
VH: EVQLVESGGGLVQPGGSLRLSCAASGFIFSNYWMSWVRQAPGKGLEWVANIKQDGSEKYYVDSVRGRFTVSRDNAKNSLYLQMNSLRAEDTAVYYCARDYFGSGTYFFYFDYWGQGTLVTFSS
VL: EIVLTQSPATLSLSPGERATLSCRASQSVSSYLAWYQQKPGQAPRLLIYDASNRATGIPARFSGSGSGTDFTLTISSLEPEDFAVYYCQQRSNWPLTFGGGTKVEIK
For B5, the Kd in assay [1] was 280 pM.

B6: fully human anti-VAP-1 monoclonal antibody 5F12 (hybridoma-derived) (antibody, V domains shown)
VH: QVQLVDSGGDVVQPGRSLRLSCAASGFSFSRSGIHWVRQAPGKGLEWVAVIWYDGIYKYYADSVKGRFTISRDNSKNTLYLQMNSLRAEDTAVYYCAREKNWGIDYWGQGTLVTVSS
VL: DIQMTQSPSSLSASVGDRVTITCRASQGISSWLAWYQQKPEKAPKSLIYGASSLQSGVPSRFSGSGSGTDFTLTISSLQPEDFATYYCQQYNSYPRTFGQGTKVEIK
Regarding B6, the Kd in assay [1] is 650 pM.
